Reference: patent publication US20240182536A1 (MURAL ONCOLOGY, published 2024)

T1: IL-18 binding protein (IL-18BP) (UniProt O95998 31-194)
T1 sequence (looked up): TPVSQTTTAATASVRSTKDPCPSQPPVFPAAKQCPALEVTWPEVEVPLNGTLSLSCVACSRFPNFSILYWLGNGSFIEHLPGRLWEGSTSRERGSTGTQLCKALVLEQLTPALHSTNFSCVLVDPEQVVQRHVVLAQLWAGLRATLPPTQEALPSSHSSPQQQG

T2: IL-18 receptors on HEK-Blue IL-18 reporter cells (UniProt Q13478 19-541; O95256 20-599, limits assumed)
T2 sequence (looked up) 1: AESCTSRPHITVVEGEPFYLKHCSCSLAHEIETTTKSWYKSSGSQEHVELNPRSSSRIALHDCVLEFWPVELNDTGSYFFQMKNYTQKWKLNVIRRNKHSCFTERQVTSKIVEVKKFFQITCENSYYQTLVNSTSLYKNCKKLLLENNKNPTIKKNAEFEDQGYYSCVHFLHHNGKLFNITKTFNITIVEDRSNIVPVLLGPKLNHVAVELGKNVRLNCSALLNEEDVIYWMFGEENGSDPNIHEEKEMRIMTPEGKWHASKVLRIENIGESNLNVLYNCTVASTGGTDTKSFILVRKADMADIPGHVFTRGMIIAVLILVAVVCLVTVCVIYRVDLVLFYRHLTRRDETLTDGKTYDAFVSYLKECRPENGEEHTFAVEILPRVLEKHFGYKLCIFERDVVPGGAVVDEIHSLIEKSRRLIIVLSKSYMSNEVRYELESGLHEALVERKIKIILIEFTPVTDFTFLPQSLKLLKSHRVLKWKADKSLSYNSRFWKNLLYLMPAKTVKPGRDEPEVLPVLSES
T2 sequence (looked up) 2: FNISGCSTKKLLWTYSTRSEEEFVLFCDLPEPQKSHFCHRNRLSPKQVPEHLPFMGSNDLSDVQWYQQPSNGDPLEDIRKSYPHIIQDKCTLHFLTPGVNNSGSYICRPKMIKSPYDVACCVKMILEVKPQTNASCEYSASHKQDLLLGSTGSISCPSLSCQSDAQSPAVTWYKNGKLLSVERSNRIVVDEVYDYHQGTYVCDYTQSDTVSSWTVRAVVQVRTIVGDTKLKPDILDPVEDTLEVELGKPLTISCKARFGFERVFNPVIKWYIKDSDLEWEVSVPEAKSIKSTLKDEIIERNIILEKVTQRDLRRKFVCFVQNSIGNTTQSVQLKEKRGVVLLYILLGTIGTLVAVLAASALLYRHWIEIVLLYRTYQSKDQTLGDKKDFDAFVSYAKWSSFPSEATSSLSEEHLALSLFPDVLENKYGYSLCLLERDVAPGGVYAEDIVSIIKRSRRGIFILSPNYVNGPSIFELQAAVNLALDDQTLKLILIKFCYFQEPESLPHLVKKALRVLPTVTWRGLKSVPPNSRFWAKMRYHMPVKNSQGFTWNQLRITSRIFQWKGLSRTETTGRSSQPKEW


Tests used:
[1] = biological target: T1, IL-18 binding protein (IL-18BP); assay: cell-based or functional assay
[2] = biological target: T2, IL-18 receptors on HEK-Blue IL-18 …; assay: cell-based or functional assay

Row | Binder | Activity, +100 nM BP, DF-1000002 [1] | Activity, +100 nM BP, DF-5000003 [1] | Activity, +100 nM BP, DF-25000004 [1] | Ratio (-BP/+BP), DF-1000005 [1] | Ratio (-BP/+BP), DF-5000006 [1] | Ratio (-BP/+BP), DF-25000007 [1] | Activity, No BP, DF-100000 [2] | Activity, No BP, DF-500000 [2] | Activity, No BP, DF-2500000 [2]
1 | IL-18 variant G3P, E6V, K53A, D54W, S55P, T63S, N91L, R104K (ligand) YFPKLVSKLSVIRNLNDQVLFIDQGNRPLFEDMTDSDMRDNAPRTIFIISMYAWPQPRGMAVSISVKSEKISTLSSENKIISFKEMNPPDLIKDTKSDIIFFQKSVPGHDNKMQFESSSYEGYFLASEKERDLFKLILKKEDELGDRSIMFTVQNED | 1.21 | 0.57 | 0.18 | 0.98 | 0.9 | 1.04 | 1.18 | 0.52 | 0.19
2 | IL-18 variant G3P, E6K, K53M, D54W, S55N, T63S, N91I (ligand) YFPKLKSKLSVIRNLNDQVLFIDQGNRPLFEDMTDSDMRDNAPRTIFIISMYMWNQPRGMAVSISVKSEKISTLSSENKIISFKEMNPPDIIKDTKSDIIFFQRSVPGHDNKMQFESSSYEGYFLASEKERDLFKLILKKEDELGDRSIMFTVQNED | 0.65 | 0.2 | 0.09 | 0.98 | 1.07 | 0.91 | 0.64 | 0.21 | 0.08
3 | IL-18 variant G3S, E6Q, K53S, D54Y, S55H, N91L, R104Q (ligand) YFSKLQSKLSVIRNLNDQVLFIDQGNRPLFEDMTDSDMRDNAPRTIFIISMYSYHQPRGMAVTISVKSEKISTLSSENKIISFKEMNPPDLIKDTKSDIIFFQQSVPGHDNKMQFESSSYEGYFLASEKERDLFKLILKKEDELGDRSIMFTVQNED | 0.51 | 0.2 | 0.1 | 0.95 | 0.81 | 0.88 | 0.49 | 0.16 | 0.08
4 | IL-18 variant G3T, E6Q, K53G, D54G, S55H, T63A, S65T, N91R, R104Q (ligand) YFTKLQSKLSVIRNLNDQVLFIDQGNRPLFEDMTDSDMRDNAPRTIFIISMYGGHQPRGMAVAITVKSEKISTLSSENKIISFKEMNPPDRIKDTKSDIIFFQQSVPGHDNKMQFESSSYEGYFLASEKERDLFKLILKKEDELGDRSIMFTVQNED | 0.49 | 0.18 | 0.11 | 1.19 | 1.03 | 1.14 | 0.58 | 0.18 | 0.12
5 | IL-18 variant G3P, E6G, D54T, S55W, N91E, R104K (ligand) YFPKLGSKLSVIRNLNDQVLFIDQGNRPLFEDMTDSDMRDNAPRTIFIISMYKTWQPRGMAVTISVKSEKISTLSSENKIISFKEMNPPDEIKDTKSDIIFFQKSVPGHDNKMQFESSSYEGYFLASEKERDLFKLILKKEDELGDRSIMFTVQNED | 0.33 | 0.12 | 0.08 | 1.09 | 1.06 | 0.97 | 0.35 | 0.13 | 0.07
6 | IL-18 variant G3R, L5W, E6H, D54Y, Q56H, N91R (ligand) YFRKWHSKLSVIRNLNDQVLFIDQGNRPLFEDMTDSDMRDNAPRTIFIISMYKYSHPRGMAVTISVKSEKISTLSSENKIISFKEMNPPDRIKDTKSDIIFFQRSVPGHDNKMQFESSSYEGYFLASEKERDLFKLILKKEDELGDRSIMFTVQNED | 0.32 | 0.11 | 0.08 | 1.25 | 1.09 | 1.01 | 0.39 | 0.12 | 0.08
